From US20260167733A1 (CLEVELAND CLINIC FOUNDATION, published 2026)

T1: human AMHR2 on AMHR2-OVCAR8 cells (human, UniProt Q16671 18-573)
T1 construct: whole, on cells; Also the target in IHC of human HGSOC tumour tissue sections; also called AMHR2-ED on human EOC cells; anti-Mullerian hormone receptor type II
T1 sequence (looked up): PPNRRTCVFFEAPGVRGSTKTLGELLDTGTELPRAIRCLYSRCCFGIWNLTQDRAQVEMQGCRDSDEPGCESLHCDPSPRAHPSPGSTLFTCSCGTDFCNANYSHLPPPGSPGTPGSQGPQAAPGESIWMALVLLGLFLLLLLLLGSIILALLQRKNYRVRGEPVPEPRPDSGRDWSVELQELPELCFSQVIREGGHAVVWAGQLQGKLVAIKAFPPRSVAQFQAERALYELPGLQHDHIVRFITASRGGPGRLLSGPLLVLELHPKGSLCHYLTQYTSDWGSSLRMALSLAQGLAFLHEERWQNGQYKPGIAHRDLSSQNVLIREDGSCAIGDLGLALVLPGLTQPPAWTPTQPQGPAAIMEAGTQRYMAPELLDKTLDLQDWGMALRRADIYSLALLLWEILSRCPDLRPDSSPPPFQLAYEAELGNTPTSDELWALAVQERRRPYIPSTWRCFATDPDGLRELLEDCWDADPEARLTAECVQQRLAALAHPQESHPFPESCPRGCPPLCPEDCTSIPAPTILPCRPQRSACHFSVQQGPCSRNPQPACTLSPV

B1: Anti-AMHR2-ED 4D12G1 Chimeric antibody (antibody, human IgG1, kappa, V domains shown)
VH: DVKLVESGGGLVKLGGSLKLSCAASGFTFSRYFMSWVRQTPEKRLELVAAINSDGGRTYYPDTVKGRFTISRDNAKNTLYLQMSSLKSEDTALYYCTRHIYSYYEDYFDYWGQGTTLTVSS
VL: DVVMTQTPLSLPVSLGDQASISCRSSQSLVHSNGNTYLHWYLQKPGQSPKLLIYKVSKRFSGVPDRFSGSGSGTDFTLKISRVEAEDLGVYFCSQSTHVYTFGGGTKLEIKR
notes: also called chimeric 4D12G1 mAb; Chimeric 4D12G1
B2: Anti-AMHR2-ED 4D12G1 Variant 5 antibody (antibody, human IgG1, kappa)
heavy: not shown
light: DVVMTQTPLSSPVTLGQPASISCRSSQSLVHSNGNTYLHWYQQRPGQPPKLLIYKVSKRFSGVPDRFSGSGSGTDFTLKISRVEAEDVGVYFCSQSTHVYTFGQGTKLEIKRTVAAPSVFIFPPSDEQLKSGTASVVCLLNNFYPREAKVQWKVDNALQSGNSQESVTEQDSKDSTYSLSSTLTLSKADYEKHKVYACEVTHQGLSSPVTKSFNRGEC
notes: Humanized variant of 4D12G1; also called humanized 4D12G1 variant 5 mAb; 4D12G1 variant 5 mAb
B3: Anti-AMHR2-ED 4D12G1 Variant 6 antibody (antibody, human IgG1, kappa)
heavy: not shown
light: B2 light
notes: Humanized variant of 4D12G1; also called humanized 4D12G1 variant 6 mAb; Hu4D12G1-6

These binders were tested against T1, human AMHR2 on AMHR2-OVCAR8 cells (assay: flow cytometry on AMHR2-OVCAR8 cells).
Procedure: The human AMHR2-OVCAR8 cells expressing high levels of human AMHR2 were treated with Fc-receptor block (BD Biosciences, San Jose, CA) and immunostained with 5 μg of a human isotype control IgG1 mAb as well as with 5 μg of the chimeric 4D12G1 mAb and variants 5 and 6 of the humanized 4D12G1 mAb. Cells were then treated with FITC-labeled goat anti-human IgG (BD Biosciences) and analyzed by flow cytometry using a FACSAria II flow cytometer and BDFacsDiva software (BD Biosciences). […] Insets show darkly staining regions of AMHR2-ED expression which occurs primarily in the parenchyma, with some staining also visible in the stroma.

Row | binding result | Binder
1 | binds | B1
2 | binds | B2
3 | binds | B3
